Here are results for two molecules from publication PMC8908248 (The Journal of Biological Chemistry, 2022).

The target of data set [1] is homodimeric sulfite oxidase Mo domain (Mo/Mo) (human). Put plainly: SEC. (In general: Size exclusion chromatography separates by hydrodynamic size, large species first.)
The data set “SEC” deals with the molecule itself. Put plainly: SEC.

Molecule “homodimeric sulfite oxidase Mo domain (Mo/Mo) (domain or fragment)” showed a stoichiometry N in data set [1] of 2.

B1: mature full-length human sulfite oxidase (WT SOX/SOX homodimer) (enzyme, UniProt P51687 80-545, looked up)
chain: ESTHIYTKEEVSSHTSPETGIWVTLGSEVFDVTEFVDLHPGGPSKLMLAAGGPLEPFWALYAVHNQSHVRELLAQYKIGELNPEDKVAPTVETSDPYADDPVRHPALKVNSQRPFNAEPPPELLTENYITPNPIFFTRNHLPVPNLDPDTYRLHVVGAPGGQSLSLSLDDLHNFPRYEITVTLQCAGNRRSEMTQVKEVKGLEWRTGAISTARWAGARLCDVLAQAGHQLCETEAHVCFEGLDSDPTGTAYGASIPLARAMDPEAEVLLAYEMNGQPLPRDHGFPVRVVVPGVVGARHVKWLGRVSVQPEESYSHWQRRDYKGFSPSVDWETVDFDSAPSIQELPVQSAITEPRDGETVESGEVTIKGYAWSGGGRAVIRVDVSLDGGLTWQVAKLDGEEQRPRKAWAWRLWQLKAPVPAGQKELNIVCKAVDDGYNVQPDTVAPIWNLRGVLSNAWHRVHVYVSP
With B1, the “stoichiometry N” value in “SEC” amounted to 2.

Usually stoichiometry N stands for the number of molecules, sites or subunits per partner or assembly.
